{"source": "paper PMC12115362", "assay_in_all_cases": "SEC; Agilent-1100, TSK G3000SWXL column; 0.2 M NaH2PO4, 0.1 M arginine, 1% IPA, pH 6.5; peaks integrated for approximate trimer percentage; N = 3", "key": {"[1]": {"target": "hMPV F pre-F design N46V_T160F (subtype A2, CAN97-83 ectodomain with foldon) (human metapneumovirus, subtype A2, strain CAN97-83 | T4)"}, "[2]": {"target": "hMPV F pre-F design K362F_G366F (subtype A2, CAN97-83 ectodomain with foldon) (human metapneumovirus, subtype A2, strain CAN97-83 | T4)"}, "[3]": {"target": "hMPV F pre-F benchmark D185P (subtype A2, CAN97-83 ectodomain with foldon) (human metapneumovirus, subtype A2, strain CAN97-83 | T4)"}}, "data": [{"substance": "hMPV F pre-F design N46V_T160F (subtype A2, CAN97-83 ectodomain with foldon) (domain or fragment)", "values": [{"measurement": "Trimer (%)", "setting": "[1]", "value": 94.7, "unit": "%"}, {"measurement": "stoichiometry N", "setting": "[1]", "value": 3}]}, {"substance": "hMPV F pre-F design K362F_G366F (subtype A2, CAN97-83 ectodomain with foldon) (domain or fragment)", "values": [{"measurement": "Trimer (%)", "setting": "[2]", "value": 76.9, "unit": "%"}, {"measurement": "stoichiometry N", "setting": "[2]", "value": 3}]}, {"substance": "hMPV F pre-F benchmark D185P (subtype A2, CAN97-83 ectodomain with foldon) (domain or fragment)", "values": [{"measurement": "Trimer (%)", "setting": "[3]", "value": 97.1, "unit": "%"}, {"measurement": "stoichiometry N", "setting": "[3]", "value": 3}]}]}
